Results: the DeepSol protein solubility set

Test: soluble on expression in E. coli; label from the status in PepcDB or PDB records
In the case of “MAHHHHHHMGTLEAQTQGPGSMNAAVIDSHSAQDYVVADIALAGWGRKELNIAETEMPGLVQIRDEYKAQQPLKGARIAGSLHMTIQTGVLIETLKALGADVRWASCNIFSTQDHAAAAIVEAGTPVFAFKGESLDEYWEFSHRIFEWPNGEFANMILDDGGDATLLLILGSKAEKDRSVIARPTNEEEVALFKSIERHLEIDGSWYSKRLAHIKGVTEETTTGVHRLYQMEKDGRLPFPAFNVNDSVTKSKFDNLYGCRESLVDGIKRATDVMIAGKIAVVAGYGDVGKGCAQSLRGLGATVWVTEIDPICALQAAMEGYRVVTMEYAADKADIFVTATGNYHVINHDHMKAMRHNAIVCNIGHFDSEIDVASTRQYQWENIKPQVDHIIFPDGKRVILLAEGRLVNLGCATGHPSFVMSNSFTNQTLAQIELFTRGGEYANKVYVLPKHLDEKVARLHLARIGAQLSELSDDQAAYIGVSKAGPFKPDHYRY”, the “soluble on expression in E. coli” value is reported as “soluble”. For “MIEIATSPATTTLVIAGDLDLAERDQFPEIAARVVGLRRQLLVIDMCRVTFMDSTGAAFLISLADSGRKRGGATVLRGCDDRDLFVLEVCGALELFRIDPDHACAPKTPATGVPAVEERPGRTR”, the “soluble on expression in E. coli” value was “not soluble”. With “MRRLNRFKAPDEKVNTLFQVYKTISFWKVVKNTVVVEFGRFFPWMGGKRNIYRACLGMKIGKKTAIAYKVMPDLFFPEKITIGENSIIGYHTTILTHEYLLSEYHVGEVVIGKNVMVGANVTILPGIEIGDGAIVAAGAVVSKDVPPESFAYGNPLVIKEKAALEHHHHHH” the “soluble on expression in E. coli” value was “soluble”. In the case of “MHEQLNSRVETCYLQAETFFKRTFKRPVVSFQLRGQKAGVAHLHENLLRFNPQLYQENAEDFLRQTVPHEVAHLVAHQLFGGGIQPHGEEWQLIMRGVYELPPNRCHTYAVQRRSVIRYIYRCPCPDSDFPFTSQRHSMVRKGRRYLCRRCREPLMFSGETRTELEHHHHHH”, the “soluble on expression in E. coli” value is reported as “not soluble”. In the case of “MFHLSSLICCGCKPNFLGFERHHPFYDNDKKRICSSECGHSLCKKCFETYKNCPICAKPLVRIDNFMAREIYAFLKKTPMIVFDMWWNRSQNPSSTGRCSTCHKYDRILRWCITCEKDLKNSEAEWRRPKIEPNTDLQKELIKVSKERFRFGILANRVICSDCFLEHHAGHRVIFLDEMISALTEYSISDSATHLVQRFLWREIEERRGKCLLRTMRMKRAFLKLFYLACDSDLTDDYNDLPKFFERLDDWKVPDGYMEKVRKNLEHQFASANVPWKDCECRYAMRIMNDMFSFKNQIEKLFVSIVNDLDLHEITECPFKNSQITDMLQKTKKMVDIQLYKLYTLFCWNNYKDGVFELFNNSNRLPTKCCLCKMSTCAECWDEEPHKCGICDDATTSSRTDPDIVVLELVKHYKENCISLLEAWWECDAAQLGFCLNCASYTEDLEICVYCELDVERSALKTEVETSAEFTKDMQLRFTYKGLSGFPMRWQCSDCTTRHRKPTADVWNKGCNHFRYRSMYASVSSECFAHNHKSPCLRLKEIKNYDLAMKAATFGLVFKIIKEGIKEHVGSEHARKEILET”, the “soluble on expression in E. coli” value is reported as “not soluble”. With “MHDVPPFSGAKLALFYGDHLVVYKRDEKPGIPFPGYWDFPGGGREGLETPAECALRELEEEFSIRLEEPRIEWQRQYPSTSGSAPFAYFLVARLEDREFEAIRFGDEGQYWRLMEVDAYLAHAMAVPYLQSRLGDYLRERRRIGE” the “soluble on expression in E. coli” value was “soluble”. In the case of “GPTSPGPALTDWARVREELASTGPPVVAMPVVIKTEGPAWTPLEPKLITRLADTVRTKGLRSPITMAEVEALMSSPLLPHDVTNLMRVILGPAPYALWMDAWGVQLQTVIAAATRDPRHPANGQGRGERTNLNRLKGLADGMVGNPQGQAALLRPGELVAITASALQAFREVARLA”, the “soluble on expression in E. coli” value is reported as “soluble”. With “MHDTEKSDSGIVAEKPTNKAGLLAAEWAEPRPGTKGNAEQQRMHRTQGRARMTQSLDRVRTAARLRKKDRFTALFHHINVDTLRAAFFALRRKAAPGVDGMTWEDYEEDLEPRLADLHKRVQRGAYRPQPSRRTYIPKADGKQRPLAIAALEDKIVQGANRHRAQRHLRRRLLWLFLRVSARQRTTAAALEHHHHHH” the “soluble on expression in E. coli” value was “soluble”. In the case of “NTKGIDEIKNLETDFNGRIGVYALDTGSGKSFSYRANERFPLCSSFKGFLAAAVLKGSQDNRLNLNQIVNYNTRSLEFHSPITTKYKDNGMSLGDMAAAALQYSDNGATNIILERYIGGPEGMTKFMRSIGDEDFRLDRWELDLNTAIPGDERDTSTPAAVAKSLKTLALGNILSEHEKETYQTWLKGNTTGAARIRASVPSDWVVGDKTGSCGAYGTANDYAVVWPKNRAPLIISVYTTKNEKEAKHEDKVIAEASRIAIDNLK”, the “soluble on expression in E. coli” value is reported as “soluble”. For “MDAAIKKIPYGMTDFERIILENYYYVDKTQYIAKVEKVTSFFFFVRPRRFGKSLFLNMLGLYYDINQKDKFEKIFGNLYIGKHPTPDRNKYLVLTLNFSSVAANMDRLEETFNTYCKIVMDGFAERNAHLLGKEAVEKLHELKTGDALLGSLCQSAQNKGQKIYLILDEYDNFANNILVDYGNKRYRSITHGSGFFRSFLKVVKDYSSSVIERIFLTGVSPVTMDDLTSGFNIADNYSSSPIFNNMMGFNEQEVRTLIDYYKSYRELPHTTDELITIMKPWYDNYCFAMKALKEPSMYNSDMVLYFMNHYMLNEDIPDNMLDANIRTDYNKLRHLIHVDKTFGENASVVQEIVEKGSTTGIIANSFPAEDIIKPENFKSLLYYYGMLTISGMEMGEPILSVPNWAVREQLYGYMADIYKDSADLYLETDKLVDRMKRMAYKGEWENCFTYIADRLNAQSSVRDFIEGEAYVKTFILAYLGLTHYYIARPEYESNKGYADIFLQPRLLQLPDMVYSYCIEVKYAKRDASDTEIEKLLSNAKIQLKQYAASEWIHQDKGTTELKSIALVFQGWKLVRVEEV”, the “soluble on expression in E. coli” value was “not soluble”. With “MSVMTLKKQTYRVIAVINQGQELLVRAHEPETADIEIIPVTTVVQVTEQNSTGDAAVALDTVTVVGERYVDDIVATLTTLRVGMAVLLQRESGNQYDDNAISVWTLQHAKLGYIARYQNQPYATLMDQGQRLYGIVTVLDQQKQHLELMLWRTTAVPSPIEALQIRQRLAKPRTNLGAVPTHSLQTPLGTIVMMCNGHPIKYQQVPLSPWLTPADELHVTKRYLLTPDWSQVPPDSLITCQVTAKADVVQRWQNEHISAAVLTNASSFYVVGISAQTKTGLNDNLVDDAAQPAVIYRVGQVSAHMQAGFMVSWAPFGDPRVQPALKLALHFSSQPLVPYHPVTPSRTNATFTQQELAALLVSALPNYQGGQRLEPSVTTITVEKLRQTLGDQTYHALANYQRHVQLVAGSTEGVNETLLQALIHAVTYHELTTMHYYQPTVGMVDQVIYPIQLFSTTTKDEDDAQLVGCLALYNYETFEIQQVPLTAIARIAIIADPEHPQTTPETESPDWLRIFLHGWNDDFLEHHHHHH” the “soluble on expression in E. coli” value was “soluble”. With “DFVHIMTPYLILDGELLHALKFAAERGVDVIIIMPGIPDKKSAYYLAKTYYPTLLASGVKIYEYTPGFIHAKVFVSDNSRAVVGTINLDYRSLYHHFECATYLYGTSSVLDIEEDFQATKDQCHRVSTTDVKNLPFYQKTLGLLARLVAP” the “soluble on expression in E. coli” value was “not soluble”. For “MTGYPDVAAFDLDYTIWPCYCDTHLHGPFKPVKSSNGEVLTIICRDGYELTIYKDIPRILGDLKDNGVKLMTASRTWAPEIAQEILKIFKVKYAGVVTPLANLFDEFQWGERSKIGHLRDGLKDLYNTSDLKSKKICLFDDESRNKEVEKYGVKFVYVRDPENGPSWKLYQDYLSGKV”, the “soluble on expression in E. coli” value was “not soluble”. In the case of “MGSDKIHHHHHHMADQMQWANALSTRHSLEAAVTDVVERAVSLLTAPADLGLVFISSAFTSEYSRLLPLLAEKLSVPVLIGCSGGGVIGTTVNGEIQELEAEPAISLTLAHLPGVKVQVFHVVAEELPDLDSSPDAWVDLIGVPASPTPQFILLSSSFASGINDLLQGLDFAYPGSVIVGGQASGGGMGGRVALFCNESDGEECQSLYREGTVGIALTGNIVLETIVAQGCRPIGKPLQVTKADRNIILELDEQVPLVVLRDLIASLSEHERTLAQHSLFVGVAMDEFKLALQQGDFLIRGILGVDPTAGAIAIGDRVRPGQRLQFHLRDAQASAEDLELLLQSYQTQRESEPSAVAALMFACLGRGEGLYGKPNFDSELFRRYLSDIPVGGFFCGGEIGPVGGRTFLHAYTSAFGICRQNQL”, the “soluble on expression in E. coli” value is reported as “not soluble”. With “MVLIIVRTLLMRISIKMIPLAYLNHFRKEHMKSRIHWAALGLLAAFAAQAETVTIEHRLGKTTLEQKPQRVVVIGVGALDAIDSFGIEPVAVSKFDGTPDYLAKYKSDKYPSAGSLFEPDFETIYTQKPDLIVIGPRASKSYDELSKIAPTIVFAAEADQGYWESTQQQWRNLGKVFAIEPAVEAKIEQVDAQFKSIMQYNQQHKSDAMLVMSSGGNLTTFGANSRFSSVYKDFGFSETVPVSKESSHGDLISFEYIREHNPKTLLVVDRDKVVTKGETNIRQTFENDLVKATTAYKNGHIAYLDVNAWYIAISGVKATEQMVADMKASVGMQ” the “soluble on expression in E. coli” value was “not soluble”. With “SLVTLGEGFEKARLTRFLEKFGGNEGSQFLYLKDYGHFYYQEEGEDQVLFGFQMKFNKCFVLADPIGQREKWTAATLAFMDQADLLGYQLVFYRISEEYVMNLHDCGFEFMKVGEEGLIQFDEPSTVNQTAWTETVTEKIAAEAADFQFEFYPETISDALYQELERVSADWSRNQKERYFIGGRLDPEYLKCSSVGLVRQKQTVIGFITGKEMEKGKSISYDLLRIRSDAPAFTREYLFTHFIETYQQQGYQLIDIGMAPLANVGESKYSFLKERFVNIFYKYSYQIYAFQDTRKRKEQYVTSWQPRYFAYPKRTSVLFAFVQLSLLITKGRHQSVSLVEEAMTEI” the “soluble on expression in E. coli” value was “not soluble”. In the case of “RLHEILASGVYANHPSPLTIALGKDISGRPVVSDLAKMPHALVAGTTGSGKSVAINAIILSLVYKASPDNVRLILIDPKMLELSVYDGIPHLLTPVVTDMRDAASALNWCVAEMERRYKLMSALGVRNLAGYNQKVREAVKNEEPLTNPLNPVPGSPELLEEMPLIVVVIDELADLMMIVGKKVEKLIARLAQKARAAGIHLLLATQRPSV”, the “soluble on expression in E. coli” value is reported as “not soluble”. In the case of “MGSDKIHHHHHHMDIRQLKTFIAIAEHGTFAKAADAVGLTPSAVSQQIQALESEVRGELFDRATRPIMLNGHGLQMLEAARTLVRDADNIIDAISGRAVSGTFTIGSVRSSALSLLPLSIVALKADYPDLRIKLQVANTDELLKDVMSGRLDCAMVAEYSGIPSALRWQPFINEPLLVIGPNGTPKMSGFDMLSKLPYVRFNSKFRLAQIIETELAKTRIVPNLIAEIDTIASVVSCVIHGLGVSVVPWIALRDIAAPIVAVQFGEPQILRPIGLLERRSGTRAQIIDRLHQNLARLSDPYGIPR”, the “soluble on expression in E. coli” value is reported as “not soluble”. In the case of “MDTLQGMRVFARVVDSGSFTSAAQALDLSTAQVSRLISDLEAHLQTRLLHRTTRRLALTEAGERYLERCRGILEDIEVAEAEAAGAHIRPCGRLRVQSLMGMGQHHLVPMIARYGALFPDVVIELTLSQRNPDMLEEGQDVLITGERQLPDSEFVAQRLGSIHSVLCASPGYLQQHGVPRSVDDLERHVCLRLQDPAYPEGWIFADEQGERTVSPQNTFMVNVAEVMAQAAKADLGIALLPSYVAAAALRNGELLRVLPGHAMHQRTIYALYPSRRYLDAKIRTWVDLLQQELPQAFARDETTMQSSSYCAQ”, the “soluble on expression in E. coli” value is reported as “not soluble”. With “MSLKQKSVPMRHGTIYLYGLHSVHAALKNPKRVFEHLYITPNALKRLNIPESDLPCPITLCLPKQLDSFVGNDAVHQGIVLETEPLKPCQLSELTNTDLVIVMDQITDPHNVGAIMRSAVAFKAEALITTYRHSPQESGVLAKAASGALEMIHYITVQNLAETLQELHKAGFISFGLDSEGNHPLETTLTGEKIALVLGAEGKGLRKKTRENVCALTRLDMPGNIKSLNVSNAATIALYAAHKYLRGEGHHHHHH” the “soluble on expression in E. coli” value was “soluble”.
